B1: SCARA5 (parent)
chain: VTEDLRLKDWEHSIALRNISLAKG

Variants of: B1
Assay: protein stability index of a GFP-peptide fusion (GPS, HEK-293T) (PSI 1-6); higher = more stable
Conditions: c terminus: a fixed tail appended
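Note: lentivirally expressed fusions sorted by FACS into six bins by GFP to DsRed ratio, PSI derived from sequencing read proportions per bin multiplied by bin number.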

Protein stability index: each site, then its substitutions
R17: W 2.26; T 3.19; I 2.07; M 2.56; H 3.41; Y 2.58; S 3.77; P 3.56; Q 3.21; N 3.53; L 1.8; C 2.84; E 4.06; G 3.62; V 1.56; K 3.38; A 3.5; D 3.94; F 2.49
E11: Q 3.16; H 2.72; W 2.55; G 2.87; F 2.24; K 3.3; P 2.92; L 2.74; T 2.75; D 3.33; N 3.56; A 2.51; C 2.47; M 2.46; I 1.91; Y 2.57; V 1.8; R 2.91; S 2.98
H12: D 3.75; R 3.51; G 3.63; C 2.62; I 2.4; W 2.25; M 2.77; V 2.44; N 3.7; L 2.38; P 3.29; A 3.2; Y 2.76; K 3.61; E 3.84; F 2.28; T 3.51; Q 3.43; S 3.88
N18: C 2.17; F 1.86; D 3.81; G 3.6; K 3.5; E 3.68; I 2.47; H 2.96; A 2.25; M 1.81; L 1.35
L16: Q 4.06; K 3.77; P 4.52; V 3.98; D 4.32; G 4; W 2.91; I 3.42; M 3.45; E 3.73; F 3.1; S 4.21; A 3.71; N 4.12; C 3.37

Reference: the supplement of paper PMC10567573
